Experimental findings from paper PMC2688732 are described below.

As a reminder, the Kd is a measure of binding affinity in units of concentration. Low values mean tighter binding, high ones weaker binding.

This assay has as its target C-reactive protein (CRP) (human) (UniProt P02741). Nature of the assay: SPR. A general note: In SPR one partner is held on a chip, and binding of the other changes the refractive index at the surface.
Sequence of UniProt P02741 (P02741 19-224): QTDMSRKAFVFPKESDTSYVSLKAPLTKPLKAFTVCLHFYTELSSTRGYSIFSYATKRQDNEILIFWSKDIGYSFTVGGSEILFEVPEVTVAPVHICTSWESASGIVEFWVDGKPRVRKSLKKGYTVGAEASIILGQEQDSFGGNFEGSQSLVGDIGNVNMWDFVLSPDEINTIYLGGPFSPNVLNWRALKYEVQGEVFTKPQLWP

On to “extracellular domain of FcγRIIa (from UniProt P12318 34-204) (receptor)”, for which the Kd is 1900 nM.
